From publication PMC3103399 (Molecular Biology of the Cell, 2011)
Non-standard residues stand in square brackets, D forms with d. No end group written: not given here. pY = N[C@@H](Cc1ccc(OP(=O)(O)O)cc1)C(=O)O

Biological target: T1, GST-nephrin-CD (residues 1102–1252) (rat, UniProt Q9R044 1102-1252)
T1 sequence (looked up): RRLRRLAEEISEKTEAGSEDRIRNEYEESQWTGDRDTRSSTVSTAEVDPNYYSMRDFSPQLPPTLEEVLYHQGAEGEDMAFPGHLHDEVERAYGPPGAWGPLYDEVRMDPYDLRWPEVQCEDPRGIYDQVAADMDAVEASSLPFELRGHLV
Assay: pull-down

Does CLASPA[pY]LSLSSE [phosphorylated TRPC6 Y284 peptide] bind?
Result: binds
